Experimental data as given in publication PMC8769549.

Experiments:
[1] = target: SARS-CoV-2 nsp3 ubiquitin-like domain Ubl1 (1 to 111) (SARS-CoV-2); experiment: ITC
[2] = target: SARS-CoV-2 nsp3a (1 to 206) (SARS-CoV-2); experiment: ITC

SARS-CoV-2 nucleoprotein N123 (domains N1, N2 and N3) (domain or fragment)
Kd [1]: 72 nM | stoichiometry N [1]: 0.903 | Kd [2]: 131 nM | stoichiometry N [2]: 0.665
